Data from patent US20200299408A1 (Genentech, published 2020).

Assays:
Test in all cases: SPR (Biacore 4000): CD3εγ variant captured from the periplasmic fraction on UCHT1v9; analyte a bispecific antibody with one 38E4v1 arm and one irrelevant arm, 0.39-100 nM
E5A = biological target: T1, E5A
T1 construct: Residue number counts from the N-terminus of CD3ε; also called CD3εγ E5A; CD3 mutant E5A
T1 single chain CD3ε-26mer linker-CD3γ: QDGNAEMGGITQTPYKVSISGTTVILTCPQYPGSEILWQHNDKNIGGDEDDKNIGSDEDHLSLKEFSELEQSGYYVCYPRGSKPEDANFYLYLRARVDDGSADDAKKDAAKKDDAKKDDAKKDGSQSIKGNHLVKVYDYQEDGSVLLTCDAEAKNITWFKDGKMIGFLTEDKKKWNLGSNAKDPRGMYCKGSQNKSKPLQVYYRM
Description: (§1) The secreted CD3εγ variants were captured from the crude periplasmic fraction using anti-CD3 antibody UCHT1v9. UCHT1v9 was immobilized on a CM5 serios S chip through amine coupling using the anti-human IgG (Fc) antibody capture kit (BR-1008-39) from GE Healthcare. SPR measurements were performed on the Biacore 4000 instrument, utilizing kinetic evaluation software. In order to measure monovalent binding affinities, anti-CD3 bispecific antibodies were used in which one arm was the anti-CD3 to be tested and the arm recognized an irrelevant antigen. The bispecific anti-CD3 antibodies were passed over the captured supernatant in a concentration series of two-fold dilutions from 0.39 to 100 nM. The resulting kinetics (FIG. 13D) were measured and calculated using Biacore 4000 BIAevaluation software (product code 28-9664-57).

M7A = biological target: T2, M7A
T2 construct: Residue number counts from the N-terminus of CD3ε; also called CD3εγ M7A
T2 single chain CD3ε-26mer linker-CD3γ: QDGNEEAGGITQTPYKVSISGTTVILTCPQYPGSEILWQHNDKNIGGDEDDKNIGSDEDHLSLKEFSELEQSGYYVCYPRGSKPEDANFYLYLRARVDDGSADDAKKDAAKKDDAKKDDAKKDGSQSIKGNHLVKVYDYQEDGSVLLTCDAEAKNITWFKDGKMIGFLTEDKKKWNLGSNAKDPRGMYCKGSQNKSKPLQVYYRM
Description: as §1

N4A = biological target: T3, N4A
T3 construct: Residue number counts from the N-terminus of CD3ε; also called CD3εγ N4A; CD3 mutant N4A
T3 single chain CD3ε-26mer linker-CD3γ: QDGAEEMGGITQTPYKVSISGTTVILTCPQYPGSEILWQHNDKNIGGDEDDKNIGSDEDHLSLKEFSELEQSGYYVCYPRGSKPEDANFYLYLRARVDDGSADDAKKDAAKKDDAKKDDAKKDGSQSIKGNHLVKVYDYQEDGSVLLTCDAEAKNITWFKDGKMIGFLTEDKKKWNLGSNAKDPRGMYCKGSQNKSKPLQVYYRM
Description: as §1

G3A = biological target: T4, G3A
T4 construct: Residue number counts from the N-terminus of CD3ε; also called CD3εγ G3A; CD3 mutant G3A
T4 single chain CD3ε-26mer linker-CD3γ: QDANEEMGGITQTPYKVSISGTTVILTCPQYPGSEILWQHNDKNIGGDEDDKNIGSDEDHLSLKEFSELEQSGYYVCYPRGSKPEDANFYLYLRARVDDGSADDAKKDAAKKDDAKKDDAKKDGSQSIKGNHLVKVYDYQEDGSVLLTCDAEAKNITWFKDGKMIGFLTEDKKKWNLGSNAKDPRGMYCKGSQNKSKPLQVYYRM
Description: as §1

D2A = biological target: T5, D2A
T5 construct: Residue number counts from the N-terminus of CD3ε; also called CD3εγ D2A; CD3 mutant D2A
T5 single chain CD3ε-26mer linker-CD3γ: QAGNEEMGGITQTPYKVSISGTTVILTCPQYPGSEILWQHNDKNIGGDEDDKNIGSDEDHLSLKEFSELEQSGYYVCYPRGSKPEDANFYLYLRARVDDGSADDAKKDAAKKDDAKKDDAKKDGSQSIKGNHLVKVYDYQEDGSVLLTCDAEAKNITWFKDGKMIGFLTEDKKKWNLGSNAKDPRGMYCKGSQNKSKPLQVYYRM
Description: as §1

Q1A = biological target: T6, Q1A
T6 construct: Residue number counts from the N-terminus of CD3ε; also called CD3εγ Q1A; CD3 mutant Q1A
T6 single chain CD3ε-26mer linker-CD3γ: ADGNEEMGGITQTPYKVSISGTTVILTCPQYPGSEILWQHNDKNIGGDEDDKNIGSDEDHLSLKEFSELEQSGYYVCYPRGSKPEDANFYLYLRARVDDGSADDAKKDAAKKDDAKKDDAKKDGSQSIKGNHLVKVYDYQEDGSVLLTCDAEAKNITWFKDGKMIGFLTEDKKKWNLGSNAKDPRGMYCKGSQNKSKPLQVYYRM
Description: as §1

G8A = biological target: T7, G8A
T7 construct: Residue number counts from the N-terminus of CD3ε; also called CD3εγ G8A
T7 single chain CD3ε-26mer linker-CD3γ: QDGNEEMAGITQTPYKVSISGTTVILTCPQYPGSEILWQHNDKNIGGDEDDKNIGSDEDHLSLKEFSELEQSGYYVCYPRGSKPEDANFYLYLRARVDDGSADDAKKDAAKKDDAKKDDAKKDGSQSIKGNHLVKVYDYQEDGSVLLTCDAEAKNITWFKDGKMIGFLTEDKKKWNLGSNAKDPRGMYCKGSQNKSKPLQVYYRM
Description: as §1

B1: hu38E4.v1 Fab (Fab, V domains shown)
VH: EVQLVQSGAEVKKPGASVKVSCKASGFTFTSYYIHWVRQAPGQGLEWIGWIYPENDNTKYNEKFKDRVTITADTSTSTAYLELSSLRSEDTAVYYCARDGYSRYYFDYWGQGTLVTVSS
VL: DIVMTQSPDSLAVSLGERATINCKSSQSLLNSRTRKNYLAWYQQKPGQSPKLLIYWTSTRKSGVPDRFSGSGSGTDFTLTISSLQAEDVAVYYCKQSFILRTFGQGTKVEIK
notes: Humanized anti-CD3 Fab; Point mutants of it were expressed as Fabs in HEK293 cells
Kd (E5A): 7 nM
Kd (M7A): 13 nM
Kd (N4A): 3 nM
Kd (G3A): 7 nM
Kd (D2A): 1500 nM
Kd (Q1A): 1000 nM
Kd (G8A): 8 nM
